Test results taken from the nanobody polyreactivity screen of Harvey et al. (2022).

assay: yeast display, Sf9 membrane polyspecificity reagent, FACS + sequencing; frameworks hold sequencing errors
In short: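 After 36–48 hours of galactose induction, yeast (Saccharomyces cerevisiae BJ5465) displaying a synthetic nanobody library were stained at 4 °C for 1 hour with 10% biotinylated, detergent-solubilized Sf9 membrane reagent. Streptavidin microbeads enriched the stained cells before FACS sorting into low and high (top ~1%) gates on anti-HA and streptavidin fluorescence. Each clone's polyreactivity label reflects its gate of origin.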

Row | Sequence | polyreactivity (PSR sort gate)
1 | QVQLVESGGGLVQAGGSLRLSCAASGRIFHIYAMGWYRQAPGKERELVAAIRSSGGSTYYADSVKGRFTISRDNAKNTVYLQMNSLKPEDTAVYYCAVDYGNPVYWDEMYYWGQGTQVTVSS | low polyreactivity
2 | QVQLVESGGGLFQAGGSLRLSCAASGITLAYNAMGWYRQAPGKEREFVAAIDVSGGRTYYADSVKVRFTISRDKSKNTVNLQMNSLNPEDTAVYYCAADVAEFSVGYWQDYDYWGQGTQVTVSS | low polyreactivity
3 | QVQLVESGGGLVQAGGSLRLSCAASGSTFYVNDMGRYRQAPGNERELVAAITWGVGDTYYADSVKGRFTISRDNAKNTVYLQMNSQKPEDTAVYYCAADTSYYYAYTQMEYWGQGTQVTVSS | low polyreactivity
4 | QVQLVESGGGLVQAGGSLRLSCADSGRTNPHYAMGWYRQAPGKESEFVAAISSRGGSTYDADSVKGRFTISRDNAKNTVYVQMNSLKPEDTAVYYCAAQYDGLPRVSYGLGEFGYWGQGSQVTVSS | low polyreactivity
5 | QVQLVESGGGLVQAGGSLRLSCAASGFTFFHYDMGWYRQAPGKERELVAAINTRGSRTYYADSVKGRFTISRDNAKNTVYLQMNSLKPEDTAGYYSAADSVQVYAGQYYYWGQGTQVTVSS | high polyreactivity
6 | QVQLVESGGGLVQAGGSLRLSCAASGITFYFNAMGWYRQAPGKEREMVAAISWPGGSTYYADSVKGRFTISRDNAKNTVYLQMNRLKPEDTAVYYCAAEAYFELSGGGLEYGYDYWGQGTQVTVSS | high polyreactivity
7 | QDQLVESGGGLVQAGGSLRLSCAASGRTFYLYAMGWYSQAPGKEREFVAVINSSGGSTYYADSVKGRFTISRDNAKNTVYLQMNSLKPEDTAVYYCAAYPIPRGRDYWGPGTQVTVSS | low polyreactivity
8 | QDQLVETGGGLVQARGSLRLSCAASGITFDKYAMGWYRQAPGKERELVAAISGSDGSTYYADSVKGRFTISRDNAKNTVYLQMNSLKQEDTSVYYCAAESEYAGTFEYDYWGQGTQVSVSS | low polyreactivity
9 | QVQLVESGGGLVQAGGSLRLSCAASGFTFLGNAMGWYRQAPGKERELVATITSGGNTKYADSVKGRFTISRDNAKNTVYFQINSLKPEDTAVYYFARDRKRQADDICEFDYWGQGSQVTVSS | low polyreactivity
10 | QVQLVESGGGLVQAGGSLRLSCAASGTFTVNTMGCYRQAPGKERELVAAISTGDTTTYADSVKGRFTISRDNAKNTVYLQMNSLKPEDTAVYYCNVDIGVYAYESDYWGQGTQVTVSS | low polyreactivity
11 | QVQLVESGGGLVQAGGSLRLSCASSGYIYIVNAMGWYRQAPGKERELDAAINSSGGNTYYADSVKGRFTISRDNAKNTVYLQMNSLKPEDTGVYYCAADQAKDISFEYDYWGQGTQVTVSS | low polyreactivity
12 | QVQLVESGGGLVQAGGSLRLSCAASGSIFDSNTMGWYRQAPGKERELVAAITGTGTSTYYADSVKGRFTISRDNAKNTVYLQMNSLKPEDTAVYYCAADLEYKTWWYDYWGQGTQVTVSS | low polyreactivity
13 | QVQLVESGGGLVQAGGSLRLSCAASGIIFDCNAMGCYRQAPGKERELVAANTSSTDSTYYADSVKGRFTISRDNAKNTVYLQMNILKPEDTAVYYCAAAYPSKTFDYWGQGTHVTVSS | low polyreactivity
14 | QVQLVESGGGLVQAGGSLRLSCAASGIIFYDYAMGWYREAPGKERVLVGAISRSGGSTYYADSVKGRFTISRDNAKYTVYLQMNCLKPEDTAVYYCNAKYPFRKKYYYWGQGTQVTVAS | high polyreactivity
15 | QVQLVESGGGLVQAGGSLRLSCAASGIFYFYAMGWYRQAPGKERELVAAITSSGGNTTYADSVKGRFTISRDNAKNTVYLQMNSLKPEDTAVYYCNAEAYSYGFDYWGQRTQVTVSS | low polyreactivity
16 | QVQLVESGGGLVQAGGSLRLSCAASGRNFTSNSMGLYRQAPGKEREFVAAITTSGASTRYADSVKGRFTISRDNAKNTVYLQMNSLKPEDTAVYYCAAEQRRFTGYDYWGQGTQVTVSS | high polyreactivity

Row | Sequence | polyreactivity (PSR sort gate)
17 | QVQLVESGGGLVQAGGSLRLSCAASGFIFRYYAMGRYRPAPGKERELVAAISKRGGGTYYADSVKGRFTISRDNAKNTVYLQMNSLKPEDTAVYYCKKDGGYGTGSSREYDSWGQGTQVTVSS | high polyreactivity
18 | QVQLVESGGGLVQAGGSLRLSCAASGITLYRYAMGWYRHAPGKERELVAAISWSGGSTYYADSVKGRFTISRDNAKNTVYLQMNSLKPEDTAVYYCAADDYKDEHDYWGQGTQVTVSS | high polyreactivity
19 | QVELVESGGGLVQAGGSLRLSCAASGSTFFKYDMGWYRQAPGKERELVAVITWSGGTTFYADSVKGRFTISRDNAKNTVYLQMNSLKPEDTAVYYCAADYYGYRYDYWGQGTQVTVSS | low polyreactivity
20 | QVQLVESGGGLVQAGGSLRLSCAASGLTFVPYAMGWYRQAPGKERELVAAIDSGGRTNYADSVKGRFTISRDNAKNTVYLQMNSLKPEDTAVYYCAVEWLSYYDENDYWGQGTQVTVSS | high polyreactivity
21 | QVQLVESGGGLVQAGGSLRVSCAAYGRIFLANAMGGYRTAAGKERELVAAISYSGGSTYYADSVKGRFTISRDNAKNTVYLQMNSLKPEDTAVYYCAADAFTWYTGRAWKYYYWGHGTQVTVSS | low polyreactivity
22 | QVQLVESGGGLVQAGGSLRLSCAASGLIFTRNFMGWYRQAPGKERELVAAITSGGSTYYADSVKRRFTISRDNAKNTVYLQMNSLNPEDTADYYCAAGCDYLLSTVRFDYWGQGTQVTVSS | high polyreactivity
23 | QVQLVESGGGLVQAGGSLRLSCAASGRIFISYTMGWDRQAPGKERELVAGIDSSGTSTYYADSVKGRFTISRDNAKNTVYLQMNSLKPEDTAVYYCNVDGNWKDTSTELDYWGQGTQVTVSS | low polyreactivity
24 | QVQLVESGGGLVQAGGSLRLSCAASGSTFRSYTMGWYRHAPGKEMELVARISRSGGSTYYADSVKGRFTISRDNAKNTVYLQMNSLKPEDTAVYYCAALYYVKPGQRYDYWGQGTQVTVSS | high polyreactivity
25 | QVQLVESGGGLVQAGGSLRLSCAASGSIFHSYAQGWYRQAPGKERELVASITASGDSTYYADSVKGRFTISRDNAKNTVYLQMNSLKPEDTAVYYCNTQAVYGGGEGGYDYWGQGTQVTVSS | low polyreactivity
26 | QVQLVESGGGLVQAGGSLRLSCADSGSTFYVYSMGWYRQAPGKERELVAAITGSTGSTYYADSVKGRFTISRDNAKNTVYLQMNSLKPVDTAVYYCAADFYGVPIIYDYWGQGTQVTLSS | low polyreactivity
27 | QVQLVESGGGLVQAGGSLRLSCAASGLIFPANAMGWYRPAPGKERELVAAISWRGSSTYYADSVKGRFTISRDNAKNTVYLQMNSLKPEDTAVYYCNVYVRSGSLRDIGYKYDYWGQGTQVTVSS | high polyreactivity
28 | QVQLVESGGGLVQAGGSLRLSCADSGRIICWYAMGWYRQAPGKERELVAAISTGSRTYYADSVKGRFTISRDNAKTTVYLQMNSLKPEDTAVYYCAASLYSGYVSWGQGTQVTVSS | low polyreactivity
29 | QVQLVESGGGLVQAGGSLRLSCAASGSIFGPYVMGWYRQAPGKEREFVAAIRGSGGSTYYADSVKGRFTISRDNAKNTVYLQMNSLKPEDTAVYYCNARLKYTLYYYWGQGTQVTVSS | high polyreactivity
30 | QVQLVESGGGLVQAGGSLRLSCAASGHIFVNKAMGWYRQAPGKEREFVAAITSNGARTYYADSVKGRFTISRDNAKNTVYLQMNSLKPEDTAVYYCAKRFARRSQRYDYWGQGTQVTVSS | high polyreactivity
31 | QVQLVESGGGLVQAGGSLRLSCAASGIIFIFYDMGWYRQAPGKERELVATITSGTNTYADSVKGRFTISRDNAKNTVFLQMNSLKPEDTGVYYCAAGFSPASQLDYWGQGSQVTVSS | low polyreactivity
32 | QVQLVESGAGLVQAGGSLRLSCSASGRTFPGYAMGWYRQAPGKERELVATISSADSTNYADSVKGRFTISRDNGKNTVYLQMNSLKAEDTAVYYCAKRYGRNGAAAQYTGGYRYDYWGQGTQVSVSS | low polyreactivity
